# Target: M.EcoKI MTase (M2S1 methyltransferase core of the EcoKI Type I RM system) (E. coli K12) (UniProt P08957)
# Experiment: ITC
# UniProt P08957, sequence (P08957 whole entry, chain 1 of 2): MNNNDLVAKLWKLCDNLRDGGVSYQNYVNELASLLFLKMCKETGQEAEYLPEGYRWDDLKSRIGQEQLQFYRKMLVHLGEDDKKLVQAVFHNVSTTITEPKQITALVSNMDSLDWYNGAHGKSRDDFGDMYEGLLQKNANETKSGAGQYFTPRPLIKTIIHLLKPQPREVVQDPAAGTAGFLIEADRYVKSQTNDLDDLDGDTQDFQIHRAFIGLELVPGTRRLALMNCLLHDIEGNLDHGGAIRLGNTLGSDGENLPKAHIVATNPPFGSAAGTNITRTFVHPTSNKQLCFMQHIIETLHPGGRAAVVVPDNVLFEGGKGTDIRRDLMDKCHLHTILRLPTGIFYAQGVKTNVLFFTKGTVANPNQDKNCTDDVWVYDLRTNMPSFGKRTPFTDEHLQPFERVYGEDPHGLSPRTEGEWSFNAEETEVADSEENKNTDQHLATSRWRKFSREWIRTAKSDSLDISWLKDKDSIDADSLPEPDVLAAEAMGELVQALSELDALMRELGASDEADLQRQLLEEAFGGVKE
# UniProt P08957, sequence (P05719 whole entry, chain 2 of 2, further chain): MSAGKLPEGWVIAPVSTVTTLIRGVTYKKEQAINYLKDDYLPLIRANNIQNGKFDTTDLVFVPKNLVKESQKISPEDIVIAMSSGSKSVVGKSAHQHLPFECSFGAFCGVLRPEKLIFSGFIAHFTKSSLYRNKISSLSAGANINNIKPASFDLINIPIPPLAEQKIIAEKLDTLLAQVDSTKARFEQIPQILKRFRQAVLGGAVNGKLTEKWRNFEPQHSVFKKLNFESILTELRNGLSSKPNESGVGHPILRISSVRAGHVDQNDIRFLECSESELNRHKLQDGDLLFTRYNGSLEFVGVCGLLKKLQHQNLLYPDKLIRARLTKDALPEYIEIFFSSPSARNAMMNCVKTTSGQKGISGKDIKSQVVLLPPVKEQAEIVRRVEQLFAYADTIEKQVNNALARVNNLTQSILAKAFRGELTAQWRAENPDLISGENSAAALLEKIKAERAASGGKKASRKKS
substance,measurement,value
Ocr/POcr (natural protein),dH,-15.3 kcal/mol
same,stoichiometry N (Ocr dimers per M.EcoKI),0.89
